According to the supplement of paper PMC7877785:
± gives the uncertainty stated by the source.

Experiment: self-splicing fitness, log relative to wild type (ln ratio); higher = more splicing; Tetrahymena group I intron in knt gene, E. coli kanamycin selection, DiMSum; sequences stand for … in CUCUCU…GGAGGGAAAAGUUAUCAGGCAUGCACCUGGUAGCUAGUCUUUAAACCAAUAGAUUGCAUCGGUUUAAAAGGCAAGACCGUCAAAUUGCGGGAAAGGGGUCAACAGCCGUUCAGUACCAAGUCUCAGGGGAAACUUUGAGAUGGCCUUGCAAAGGGUAUGGUAAUAAGCUGACGGACAUGGUCCUAACCACGCAGCCAAGUCCUAAGUCAACAGAUCUUCUGUUGAUAUGGAUGCAGUUCACAGACUAAAUGUCGGUCGGGGAAGAUGUAUUCUUCUCAUAAGAUAUAGUCGGACCUCUCCUUAAUGGGAGCUAGCGGAUGAAGUGAUGCAACACUGGAGCCGCUGGGAACUAAUUUGUAUGCGAAAGUAUAUUGAUUAGUUUUGGAGUACUCGUGGUCG
Summary of the method: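 Six replicate transformations of E. coli BL21(DE3) with a pET-22b(+) library were grown overnight at 37°C or 30°C. The library randomised all eight P1ex-region intron nucleotides, the intron lying in the knt kanamycin-resistance gene, and plates were LB agar with or without 25 μg/mL kanamycin plus 100 μg/mL carbenicillin, 50 μM IPTG and 0.2% rhamnose. Pooled colonies were amplicon-sequenced on an Illumina HiSeq 2500, and fitness is the DiMSum error-weighted combination of wild-type-normalised replicate fold changes, kanamycin versus none.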

Sequence	self-splicing fitness (ln) (30 °C)	self-splicing fitness (ln) (37 °C)
CGCCAGCAAUAUUACGAUCG	-0.715 ± 0.063	-0.476 ± 0.092
CGCCAGCAAUAUUACGCAGU	-4.04 ± 0.18	-2.18 ± 0.16
CGCCAGCAAUAUUACGCCCG	-1.47 ± 0.14	-0.959 ± 0.19
CGCCAGCAAUAUUACGCCUG	-1.21 ± 0.1	-0.608 ± 0.096
CGCCAGCAAUAUUACGCGCC	-1.82 ± 0.27	-1.15 ± 0.27
CGCCAGCAAUAUUACGCGGG	-4.25 ± 0.2	-3.11 ± 0.24
CGCCAGCAAUAUUACGGACU	-0.845 ± 0.066	0.157 ± 0.091
CGCCAGCAAUAUUACGGGCA	-0.258 ± 0.095	0.189 ± 0.095
CGCCAGCAAUAUUACGGGGG	-3 ± 0.16	-2.17 ± 0.2
CGCCAGCAAUAUUACGGUAC	-2.83 ± 0.095	-1.52 ± 0.091
CGCCAGCAAUAUUACGUAGC	-2.36 ± 0.17	-3.11 ± 0.33
CGCCAGCAAUAUUACGUAUG	-0.516 ± 0.055	-0.0225 ± 0.074
CGCCAGCAAUAUUACGUUGA	-2.84 ± 0.11	-2.83 ± 0.13
CGCCAGCAAUAUUACGUUGU	-3.62 ± 0.14	-3.07 ± 0.15
CGCGAGCAAUAUUACGAAUG	-1.9 ± 0.095	-0.424 ± 0.13
CGCGAGCAAUAUUACGAGCC	-3.49 ± 0.32	-1.4 ± 0.28
CGCGAGCAAUAUUACGAGGU	-2.22 ± 0.25	-1.93 ± 0.23
CGCGAGCAAUAUUACGAGUC	-2.7 ± 0.38	-1.57 ± 0.29
CGCGAGCAAUAUUACGAUGA	-3.39 ± 0.32	-1.7 ± 0.18
CGCGAGCAAUAUUACGAUUU	-3.35 ± 0.21	-3.39 ± 0.24
CGCGAGCAAUAUUACGCCGU	-3.93 ± 0.47	-3.01 ± 0.4
CGCGAGCAAUAUUACGCGAG	-3.97 ± 0.37	-2.01 ± 0.41
CGCGAGCAAUAUUACGCGUG	-2.29 ± 0.14	-2.67 ± 0.15
CGCGAGCAAUAUUACGCGUU	-3.07 ± 0.25	-2.74 ± 0.34

Sequence	self-splicing fitness (ln) (30 °C)	self-splicing fitness (ln) (37 °C)
CGCGAGCAAUAUUACGCUGA	-2.03 ± 0.22	-1.78 ± 0.35
CGCGAGCAAUAUUACGGAUA	-1.66 ± 0.27	
CGCGAGCAAUAUUACGGCAU	-2.86 ± 0.17	-1.43 ± 0.12
CGCGAGCAAUAUUACGGCUA	-1.23 ± 0.15	-1.98 ± 0.16
CGCGAGCAAUAUUACGGGAU	-4.13 ± 0.23	-2.59 ± 0.21
CGCGAGCAAUAUUACGUCUG	-0.412 ± 0.067	-0.178 ± 0.073
CGCGAGCAAUAUUACGUGGA	-2.79 ± 0.16	-3.01 ± 0.34
CGCGAGCAAUAUUACGUGUU	-3.1 ± 0.15	-2.75 ± 0.17
CGCGAGCAAUAUUACGUUGG	-3.22 ± 0.17	-2 ± 0.2
CGCGAGCAAUAUUACGUUUC	-4.02 ± 0.27	-2.06 ± 0.25
CGCGAGCAAUAUUACGUUUU	-4.56 ± 0.46	-2.17 ± 0.2
CGCUAGCAAUAUUACGAACG	-2.16 ± 0.099	-1.1 ± 0.11
CGCUAGCAAUAUUACGAAUU	-2.77 ± 0.16	-2.58 ± 0.28
CGCUAGCAAUAUUACGACAC	-3.1 ± 0.23	-1.33 ± 0.21
CGCUAGCAAUAUUACGACUU	-2.41 ± 0.12	-0.983 ± 0.15
CGCUAGCAAUAUUACGAGUG	-2.91 ± 0.16	-3.22 ± 0.17
CGCUAGCAAUAUUACGAUAC	-3.07 ± 0.21	-2.31 ± 0.16
CGCUAGCAAUAUUACGAUCU	-0.867 ± 0.1	-1.49 ± 0.11
CGCUAGCAAUAUUACGCAUG	-2.04 ± 0.12	-1.24 ± 0.16
CGCUAGCAAUAUUACGCCGU	-0.129 ± 0.17	-0.719 ± 0.18
CGCUAGCAAUAUUACGCGCA	-1.81 ± 0.17	-1.52 ± 0.17
CGCUAGCAAUAUUACGCGCU	-3.85 ± 0.25	-2.75 ± 0.22
CGCUAGCAAUAUUACGCGGU	-3.4 ± 0.26	-2.39 ± 0.21
